From publication PMC11855334, “Exploring the Potential of Glutathione Reductase Overexpression to Improve Tellurium Nanoparticle Production in Escherichia coli” (International Journal of Molecular Sciences, 2025)

How the values were obtained:
[1] = biological target: glutathione reductase from Pseudomonas lini strain BNF22 (Pseudomonas lini (strain BNF22)); assay: SEC; Superdex 200; 20 mM sodium phosphate pH 7.4, 200 mM NaCl, 1 mM β-mercaptoethanol; elution times compared to a gel filtration protein standard; homodimer
[2] = biological target: the molecule itself; assay: as above

| Molecule | stoichiometry N [1] | stoichiometry N [2] |
| --- | --- | --- |
| glutathione reductase from Pseudomonas lini strain BNF22 (enzyme) | 2 | – |
| glutathione reductase from E. coli (enzyme, UniProt P06715 1-450, looked up, glutathione reductase (GR) of Escherichia coli; cloned in earlier work of the same laboratory; also called E. coli GR; GR; source: E. coli C41 (DE3), purified (HisTrap HP)) MTKHYDYIAIGGGSGGIASINRAAMYGQKCALIEAKELGGTCVNVGCVPKKVMWHAAQIREAIHMYGPDYGFDTTINKFNWETLIASRTAYIDRIHTSYENVLGKNNVDVIKGFARFVDAKTLEVNGETITADHILIATGGRPSHPDIPGVEYGIDSDGFFALPALPERVAVVGAGYIAVELAGVINGLGAKTHLFVRKHAPLRSFDPMISETLVEVMNAEGPQLHTNAIPKAVVKNTDGSLTLELEDGRSETVDCLIWAIGREPANDNINLEAAGVKTNEKGYIVVDKYQNTNIEGIYAVGDNTGAVELTPVAVAAGRRLSERLFNNKPDEHLDYSNIPTVVFSHPPIGTVGLTEPQAREQYGDDQVKVYKSSFTAMYTAVTTHRQPCRMKLVCVGSEEKIVGIHGIGFGMDEMLQGFAVALKMGATKKDFDNTVAIHPTAAEEFVTMR | – | 2 |
| glutathione reductase from Enterobacter cloacae strain MF01 (enzyme) MTKHYDYIAIGGGSGGIASINRAAMYGQKCALIEAKALGGTCVNVGCVPKKVMWHAAQIREAIHMYGPDYGFDTTINHFDWEKLIASRTAYIDRIHTSYDNVLGKNNVDVIHGFARFVDAKTIEVNGETITADHILIATGGRPSHPNIPGAEYGIDSDGFFVLPALPERVAVVGAGYIAVELAGVINGLGAEAHLFVRKHAPLRSFDPLIVDTLVEVMNTEGPTLHTNAVPKAVIKNADGSLTLELEDGRSQTVDCLIWAIGREPANDNFNLAVTGVKTDEKGYIVVDKFQNTSVPGIYAVGDNTGAVELTPVAVAAGRRLSERLFNNKPDEHLDYSNIPTVVFSHPPIGTVGLTEPQAREQYGDDQVKVYKSAFTAMYTAVTSHRQPCRMKLVCVGPEEKIVGIHGIGFGMDEILQGFAVALKMGATKKDFDNTVAIHPTAAEEFVTMR | – | 2 |
| glutathione reductase from Psychrobacter immobilis strain BNF08 (enzyme) MTKHYDYIAIGGGSGGIASINRAASYGKKCAVIEANQLGGTCVNLGCVPKKVMWYGAQIAEAIHKYAPDYGFNVDVKGFDFQKLVQSRQQYIENIHRSYDNNLAKNGVEVIKGFAKFVDTNTVEVNGELITADHILIATGGHPIQPDIKGAEYGIDSDGFFALNHLPKRVAIVGAGYIAVEIAGVLNSLGAEVHLYVRQHSPLRSFDHSVVEALLIEMEQDGIQLHTNTTLTEVNKNEDGSLTLCTENGSLDTTDCLIWAIGRAPSTDNINLQVTGVETNEIGKIKVDKFQNTNVKNIYAVGDIIENSVDLTPVAIAAGRRLSERLFNNKPNEHLDYTLIPTVIFTHPAIGTIGLSEIDAVERYGKENIKCYKSTFTSMYSAVTQHRQKCMMKLVCLGDEEKVIGLHGLGFGVDEMIQGFAVAIKMGATKADFDNTVAIHPTGSEEFVTMR | – | 2 |
